The values that follow come from publication PMC3983370.

As usually defined, the Kd is the concentration at which binding is half-saturated.

The target of the data set is HCoV-OC43 nucleocapsid (N) protein WT (Human coronavirus OC43, UniProt P33469 1-448). The data set can be described thus: SPR. On the technique in general: SPR reads the build-up and loss of mass on a sensor chip optically.
HCoV-OC43 nucleocapsid (N) protein WT, sequence (P33469 whole entry): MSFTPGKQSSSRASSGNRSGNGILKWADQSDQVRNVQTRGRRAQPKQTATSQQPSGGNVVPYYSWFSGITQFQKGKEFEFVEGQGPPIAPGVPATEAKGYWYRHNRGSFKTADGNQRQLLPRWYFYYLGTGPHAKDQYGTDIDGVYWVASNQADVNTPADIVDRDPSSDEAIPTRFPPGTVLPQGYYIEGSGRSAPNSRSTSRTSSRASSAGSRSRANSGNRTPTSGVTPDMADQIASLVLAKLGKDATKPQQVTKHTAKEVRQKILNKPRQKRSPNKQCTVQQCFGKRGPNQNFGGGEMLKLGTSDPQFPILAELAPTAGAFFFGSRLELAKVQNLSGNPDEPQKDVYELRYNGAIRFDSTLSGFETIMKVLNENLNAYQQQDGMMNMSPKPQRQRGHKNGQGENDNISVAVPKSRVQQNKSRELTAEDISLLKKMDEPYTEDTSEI

On to UCUAAACUCUAAACUCUAAACUCUAAAC (ssRNA) [(UCUAAAC)4 repeated intergenic sequence], for which the Kd worked out at 11.7 ± 0.8 nM.
